Reference: patent publication US20260132197A1 (NANJING LEGEND BIOTECH, published 2026)
Residue numbers refer to the chain shown, from its start. Names and notes keep the numbering of the source.

Tests used:
[1] = target: T1, cynomolgus CD47 on CHO-K1 stable cell line (cynomolgus, UniProt A0A5F8AK49 19-323 (rhesus entry)); assay: flow cytometry on cynomolgus CD47 CHO-K1 cells
T1 construct: whole, on cells; also called cynomolgus CD47/CHO-K1

[2] = target: T2, human CD47 on cells (SHP-77 tumor cells, human red blood cells, CCRF-CEM cells, human CD47 CHO-K1 stable cell … (human, UniProt Q08722 19-323)); assay: cell-based or functional assay
[3] = target: T3, wild type human CD47 (Acro Biosystems, cat. no. CD7-H5227) (human, UniProt Q08722 19-139); assay: SPR, IgG captured, CD47 in flow; exp 4;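 also: rates fitted from SPR association and dissociation curves, KD estimated from them, the other target is a CD47 C33G mutein, used to obtain true monovalent affinity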
T3 construct: Bought protein used as SPR analyte; also called Human CD47 wt; wild-type CD47

[4] = target: T4, Human CD47-C33G (human, UniProt Q08722 19-135); assay: SPR, IgG captured, CD47 in flow; exp 4;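 also: rates fitted from SPR association and dissociation curves, KD estimated from them, the other target is a CD47 C33G mutein, used to obtain true monovalent affinity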
T4 construct: also called CD47 mutein with C33G mutation

[5] = target: T2, human CD47 on cells (SHP-77 tumor …); assay: flow cytometry on SHP-77 cells
[6] = target: T2, human CD47 on cells (SHP-77 tumor …); assay: flow cytometry on human RBCs;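 also: antibody binding measured by flow cytometry as geometric mean fluorescence intensity over a range of antibody concentrations, with EC50 and maximum taken from a sigmoidal dose-response fit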
[7] = target: T3, wild type human CD47 (Acro Biosystems, …); assay: SPR, IgG captured, CD47 in flow; exp 1;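 also: biacore T200 SPR using IgG from supernatants of transfected HEK293 cells, rate constants fitted to association and dissociation curves, Kd derived from koff over kon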
[8] = target: T4, Human CD47-C33G; assay: SPR, IgG captured, CD47 in flow; exp 1;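 also: biacore T200 SPR using IgG from supernatants of transfected HEK293 cells, rate constants fitted to association and dissociation curves, Kd derived from koff over kon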
[9] = target: T3, wild type human CD47 (Acro Biosystems, …); assay: SPR, IgG captured, CD47 in flow; exp 2;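 also: IgG from HEK293 cell supernatants tested by SPR on a BIAcore T200, C33G mutein prevents IgV homodimers for monovalent affinity, KD derived from association and dissociation rates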
[10] = target: T4, Human CD47-C33G; assay: SPR, IgG captured, CD47 in flow; exp 2;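 also: IgG from HEK293 cell supernatants tested by SPR on a BIAcore T200, C33G mutein prevents IgV homodimers for monovalent affinity, KD derived from association and dissociation rates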
[11] = target: T3, wild type human CD47 (Acro Biosystems, …); assay: SPR, IgG captured, CD47 in flow; exp 3;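 also: biacore T200 SPR with antibodies taken from supernatants of transfected HEK293 cells, C33G mutein avoiding IgV homodimers for monovalent affinity, Kd derived from association and dissociation rate constants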
[12] = target: T4, Human CD47-C33G; assay: SPR, IgG captured, CD47 in flow; exp 3;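 also: biacore T200 SPR with antibodies taken from supernatants of transfected HEK293 cells, C33G mutein avoiding IgV homodimers for monovalent affinity, Kd derived from association and dissociation rate constants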

B1: Hu5F9 (antibody, V domains shown)
VH: QVQLVQSGAEVKKPGASVKVSCKASGYTFTNYNMHWVRQAPGQRLEWMGTIYPGNDDTSYNQKFKDRVTITADTSASTAYMELSSLRSEDTAVYYCARGGYRAMDYWGQGTLVTVSS
VL: DIVMTQSPLSLPVTPGEPASISCRSSQSIVYSNGNTYLGWYLQKPGQSPQLLIYKVSNRFSGVPDRFSGSGSGTDFTLKISRVEAEDVGVYYCFQGSHVPYTFGQGTKLEIK
Which EC50 [1] does the source give for B1 here?
The EC50 was 0.6 nM.

B2: 108VH10.Mo / 108VL10.Me (antibody, V domains shown)
VH: EVQLVESGGGLVQPGGSLRLSCAASGFTFSHHWIHWVRQAPGKGLEWVAMIDASDSETRLSDSFKGRFTISADTSKNTAYLQMNSLRAEDTAVYYCSRLGRYYFDYWGQGTLVTVSS
VL: DIQMTQSPSSLSASVGDRVTITCRASQSISSYLNWYQQKPGKAPKLLIYGASSRYSGVPSRFSGSRSGTDFTLTISSLQPEDFATYYCGESYGHLYTFGQGTKVEIK
notes: 4D5-framework series; also called VH10.Mo VL10.Me
For B2, which “CCRF-CEM phagocytosis EC50” value [2] is on record?
The value was 0.18 nM.

What about the “CCRF-CEM phagocytosis, Phagocytosis (%)” value [2] of the same binder?
The value was 56.4%.

What about the Kd [3] of the same binder?
Its Kd is 5.8 nM.

And the koff [3]?
Its koff is 0.0032 s⁻¹.

And the kon [3]?
Its kon is 560000 M⁻¹ s⁻¹.

What about the Kd [4] of the same binder?
Its Kd is 45 nM.

And the koff [4]?
Its koff is 0.0093 s⁻¹.

And the kon [4]?
Its kon is 210000 M⁻¹ s⁻¹.

What about the EC50 [5] of the same binder?
Its EC50 is 7.9 nM.

And the “Fitted Maximal MFI” value [5]?
The value was 34500 MFI.

And the EC50 [6]?
The EC50 was 3.4 nM.

And the “Fitted Maximal MFI” value [6]?
The value was 19200 MFI.

B3: 108VH10.Mp / 108VL10.Me (antibody, V domains shown)
VH: B2 VH with S61V
VL: B2 VL
notes: 4D5-framework series; constant regions not restated for this series; also called VH10.Mp VL10.Me
Which “CCRF-CEM phagocytosis EC50” value [2] does the source give for B3 here?
The value was 1.2 nM.

What about the “CCRF-CEM phagocytosis, Phagocytosis (%)” value [2] of the same binder?
The value was 47.1%.

And the Kd [3]?
Its Kd is 15 nM.

What about the koff [3] of the same binder?
Its koff is 0.0039 s⁻¹.

What about the kon [3] of the same binder?
The kon was 250000 M⁻¹ s⁻¹.

What about the Kd [4] of the same binder?
Its Kd is 170 nM.

What about the koff [4] of the same binder?
Its koff is 0.012 s⁻¹.

What about the kon [4] of the same binder?
The kon was 72000 M⁻¹ s⁻¹.

What about the EC50 [5] of the same binder?
The EC50 was 27.5 nM.

And the “Fitted Maximal MFI” value [5]?
The value was 24100 MFI.

What about the EC50 [6] of the same binder?
The EC50 was 23.6 nM.

And the “Fitted Maximal MFI” value [6]?
The value was 16100 MFI.

B4: 108VH5 / 108VL1.M5 (antibody, human IgG4 S228P, kappa, V domains shown)
VH: EVQLVQSGAEVKKPGASVKVSCKASGYSFTHHWIHWVRQAPGQGLEWMGMIDPSDSETRLSQKFKDRVTMTRDTSTSTVYMELSSLRSEDTAVYYCARLGRYYFDYWGQGTLVTVSS
VL: EIVLTQSPATLSLSPGERATLSCRASQSVSSYLAWYQQKPGQAPRLLIYGASNRATGIPARFSGSGSGTDFTLTISSLEPEDFAVYYCGESYGHLYTFGGGTKVEIKR
notes: Full-length IgG4 (S228P), kappa; also called VH5 VL1.M5
What does the source list for B4?
Kd [7]: 0.83 nM; koff [7]: 0.00065 s⁻¹; kon [7]: 780000 M⁻¹ s⁻¹; Kd [8]: 3.4 nM; koff [8]: 0.0012 s⁻¹; kon [8]: 340000 M⁻¹ s⁻¹; Kd [9]: 0.82 nM; koff [9]: 0.00059 s⁻¹; kon [9]: 720000 M⁻¹ s⁻¹; Kd [10]: 3.9 nM; koff [10]: 0.0012 s⁻¹; kon [10]: 310000 M⁻¹ s⁻¹

B5: 108VH5.M18 / 108VL1.M5 (antibody, human IgG4 S228P, kappa, V domains shown)
VH: B4 VH with S28T, I34M, P53A, D55E, L60Y, S61A, K65Q, D66G
VL: B4 VL
notes: Full-length IgG4 (S228P), kappa; also called VH5.M18 VL1.M5
What does the source list for B5?
Kd [11]: 12 nM; koff [11]: 0.002 s⁻¹; kon [11]: 170000 M⁻¹ s⁻¹; Kd [12]: 1200 nM; koff [12]: 0.087 s⁻¹; kon [12]: 75000 M⁻¹ s⁻¹

B6: 108VH5.M12 / 108VL1.M5 (antibody, human IgG4 S228P, kappa, V domains shown)
VH: B4 VH with S28T, I34M, P53A, L60Y, S61A, K65Q, D66G
VL: B4 VL
notes: Full-length IgG4 (S228P), kappa; also called VH5.M12 VL1.M5
B6 was tested. Which Kd [9] did it give?
The Kd was 2.7 nM.

What about the koff [9] of the same binder?
Its koff is 0.002 s⁻¹.

What about the kon [9] of the same binder?
The kon was 730000 M⁻¹ s⁻¹.

And the Kd [10]?
The Kd was 15 nM.

And the koff [10]?
The koff was 0.0041 s⁻¹.

What about the kon [10] of the same binder?
Its kon is 280000 M⁻¹ s⁻¹.
